Measured values reported in patent US20100136663.

Target: T1, ZFP-CRP Del 180 (CRP 1-180 fused to human zinc fingers ZFP1/ZFP2) (Escherichia coli / Homo sapiens) (UniProt P0ACJ8)
T1 sequence: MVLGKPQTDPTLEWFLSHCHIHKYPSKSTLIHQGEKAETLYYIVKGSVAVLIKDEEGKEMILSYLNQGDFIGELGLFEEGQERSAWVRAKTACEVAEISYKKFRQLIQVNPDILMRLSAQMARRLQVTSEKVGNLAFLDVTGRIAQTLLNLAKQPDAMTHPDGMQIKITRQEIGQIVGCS
Test: cell_activity

ATCGATAAGCTTGCGGCGGGGGCGGCGGGGACTCCCCATCCCCCTGTTGACAATTAATCATCGGCTCGTATAATGTGTGGAATTGTGAGCGGATAACAATTTCACACAGGAAACAGGATCAAATTATGCCTGTCGAC (double strand)
activity (fold activation) (E. coli EGFP reporter without IPTG, 2-fold with 1 mM IPTG, assignment of SEQ 7 to pEGFP-A inferred): 3

ATCGATAAGCTTACTCCCCATCCCCCTGTTGACAATTAATCATCGGCTCGTATAATGTGTGGAATTGTGAGCGGATAACAATTTCGCGGCGGGGGCGGCGGGGACACAGGAAACAGGATCAAATTATGCCTGTCGAC (double strand)
activity (fold repression) (E. coli EGFP reporter with 1 mM IPTG, assignment of SEQ 8 to pEGFP-R inferred): 1.5
